The results in this text go back to patent publication US20210363224A1 (CONSEJO SUPERIOR DE INVESTIGACIONES CIENT FICAS, published 2021).

In this assay the target is T1, Recombinant human IL13 (PeproTech) (human, UniProt P35225 35-146, limits assumed).
T1 construct: Bought reagent; also called interleukin 13
The assay is described as follows: SPR, BIAcore 3000, IL-13 amine-coupled to CM5 sensor chip (7700 RU), peptide as analyte. As to the method: Binding of D1 peptide to IL-13 was monitored by surface plasmon resonance on a BIAcore 3000 instrument (BIAcore Inc, Switzerland). IL-13 was covalently amino coupled to a CM-5 sensor chip. An immobilization level of 7700 RU was obtained. A nonderivatized flow cell was used as a control. The interaction between D1 peptide and the immobilized IL13 was determined by changes in the RU at different D1 concentrations.
A direct quantitative analytical method as Biacore was used to determine the affinity of the D1 peptide binding to IL-13 (FIG. 3C). Some limitations in the quantitative adjustment to the established models of the Biacore instrument caused a difficult interpretation of the results and impede an accurate determination of the affinity.

T1 sequence (P35225 35-146 limits assumed): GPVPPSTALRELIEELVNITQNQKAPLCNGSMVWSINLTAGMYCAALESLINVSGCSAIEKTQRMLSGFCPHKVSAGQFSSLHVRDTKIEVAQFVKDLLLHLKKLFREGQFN

B1: IL13Rα2D1 peptide (GSETWKTIITKN) (peptide)
peptide: GSETWKTIITKN
notes: Made by solid phase synthesis; also called peptide IL13Rα2 D1; L-version
Broadly, the Kd is the equilibrium constant for the complex coming apart. For B1, the Kd is ~100 µM.
